Laboratory results as given in paper PMC8200818, “SPECT/CT Imaging, Biodistribution and Radiation Dosimetry of a ^177Lu-DOTA-Integrin αvβ6 Cystine Knot Peptide in a Pancreatic Cancer Xenograft Model” (Frontiers in Oncology, 2021).

Tests used:
in vivo = conditions: female, athymic NMRI-Foxn1^nu/Foxn1^nu, mouse, iv, 1 MBq, total radioactivity
From the text: (§1) For in vivo experiments, at least 8-week-old female athymic NMRI-Foxn1^nu/Foxn1^nu mice (Janvier Labs, Saint-Berthevin, France) were used. Animal care followed institutional guidelines and all experiments were approved by local animal research authorities. For the generation of tumor xenografts, 5 x 10^6 cells of Capan-2 cells were inoculated subcutaneously into the left and right shoulder (1:1 phosphate-buffered saline [PBS]/Matrigel Basement Membrane Matrix High Concentration, Corning, Corning, USA). Tumors were allowed to grow for two to four weeks (tumor volume > 100 mm^3) after cell inoculation.
(§2) Radiolabeling of the DOTA-integrin αvβ6 knottin was carried out manually using [^177Lu]LuCl3 and a reagent kit from ITG Isotope Technologies Garching GmbH (Garching, Germany). A total of 40 µL (stock solution of peptide at 1 µg/µL in 10% DMSO in water) was added to 500 µL of ascorbate buffer solution pH 5.0, prepared from the kit (composition not disclosed by vendor) and the resulting mixture was then added to 35 µL of [^177Lu]LuCl3 (2 GBq in aqueous 0.04 M HCl) and the reaction mixture was heated at 80 °C for 35 minutes followed by cooling for 10 minutes at room temperature. The product was then diluted with 0.5 mL of saline and the pH was adjusted to 7 using a 1 M aqueous solution of NaHCO3 prior to injection in mice. A reverse-phase HPLC system (Knauer GmbH, Germany) with a column (Eurospher II, C18, 250 × 4 mm) was used to determine the radiochemical purity of the radiotracer. The HPLC system was equipped with an Azura P.6.1L pump coupled with ultraviolet (Azura UVD 2.1L) and radiometric (γ-Raytest-Isotopenmessgeraete GmbH, Germany) detectors. The gradient elution system used mobile phase A (100% acetonitrile) and mobile phase B (deionized H2O containing 0.1% trifluoroacetic acid) and a flow rate of 1.0 mL/min. Starting with 0% A and 100% B, the gradient was increased to 100% A over 25 min and finally returned to initial gradient conditions within 5 min.
(§3) Tumor-bearing mice (n=4-5 per time point) were injected with approximately 1 MBq (22 pmol) of ^177Lu-DOTA-integrin αvβ6 knottin to the tail vein via a catheter. Mice (n=4-5 per time point) were sacrificed and dissected one, two, three and eight days post injection. Tumor, blood, stomach, pancreas, small intestine, colon, liver, spleen, kidney, heart, lung, muscle and femur samples were weighed and uptake of radioactivity was measured by a gamma counter.

Capan-2 xenografts = experiment: in vivo; conditions: for Kidney uptake / Blood activity: ~1 MBq i.v.
From the text: as §1, §2, §3

[1] = 192 h p.i., nude mice, Capan-2 xenografts, mean ± SD (4 ≤ n ≤ 5)

CC[C@H](C)[C@@H]1NC(=O)[C@@H](NC(=O)CNC(=O)CN2CCN(CC(=O)O)CCN(CC(=O)O)CCN(CC(=O)O)CC2)CSSC[C@@H]2NC(=O)[C@H](C)NC(=O)CNC(=O)[C@@H]3CCCN3C(=O)[C@@H]3CSSC[C@@H](C(=O)NCC(=O)O)NC(=O)[C@H](Cc4ccc(O)cc4)NC(=O)CNC(=O)[C@H](CC(N)=O)NC(=O)CNC(=O)[C@H](CCCNC(=N)N)NC(=O)[C@H](CSSC[C@H](NC(=O)[C@H](CCCNC(=N)N)NC(=O)[C@H](Cc4ccccc4)NC(=O)[C@H](CC(C)C)NC(=O)[C@H](CC(C)C)NC(=O)[C@H]([C@@H](C)O)NC(=O)CNC(=O)[C@H](CC(C)C)NC(=O)[C@H](CC(=O)O)NC(=O)[C@H]([C@@H](C)O)NC(=O)[C@H](CCCNC(=N)N)NC(=O)CNC(=O)[C@H](CC(N)=O)NC(=O)[C@H](CC(C)C)NC1=O)C(=O)N[C@@H](CCCNC(=N)N)C(=O)N[C@@H](CCCNC(=N)N)C(=O)N[C@@H](CC(=O)O)C(=O)N[C@@H](CO)C(=O)N[C@@H](CC(=O)O)C(=O)N3)NC(=O)[C@H]([C@@H](C)CC)NC2=O [^177Lu-DOTA-integrin αvβ6 knottin, metal not drawn]
tissue uptake at 48 h (in vivo; femur, Femur uptake, 48 h p.i., ~1 MBq i.v., nude mice, Capan-2 xenografts, mean ± SD (4 ≤ n ≤ 5)): 0.45 %ID/g
tissue uptake at 72 h (in vivo; femur, Femur uptake, 72 h p.i., ~1 MBq i.v., nude mice, Capan-2 xenografts, mean ± SD (4 ≤ n ≤ 5)): 0.13 %ID/g
tissue uptake at 192 h (in vivo; femur, Femur uptake, 192 h p.i., ~1 MBq i.v., nude mice, Capan-2 xenografts, mean ± SD (4 ≤ n ≤ 5)): 0.07 %ID/g
tissue uptake at 24 h (in vivo; heart, Heart uptake, 24 h p.i., ~1 MBq i.v., nude mice, Capan-2 xenografts, mean ± SD (4 ≤ n ≤ 5)): 0.16 %ID/g
tissue uptake at 48 h (in vivo; heart, Heart uptake, 48 h p.i., ~1 MBq i.v., nude mice, Capan-2 xenografts, mean ± SD (4 ≤ n ≤ 5)): 0.07 %ID/g
tissue uptake at 72 h (in vivo; heart, Heart uptake, 72 h p.i., ~1 MBq i.v., nude mice, Capan-2 xenografts, mean ± SD (4 ≤ n ≤ 5)): 0.08 %ID/g
tissue uptake at 192 h (in vivo; heart, Heart uptake, 192 h p.i., ~1 MBq i.v., nude mice, Capan-2 xenografts, mean ± SD (4 ≤ n ≤ 5)): 0.04 %ID/g
tissue uptake at 24 h (in vivo; kidney, Kidney uptake, 24 h p.i., ~1 MBq i.v., nude mice, Capan-2 xenografts, mean ± SD (4 ≤ n ≤ 5)): 19.2 %ID/g
tissue uptake at 48 h (in vivo; kidney, Kidney uptake, 48 h p.i., ~1 MBq i.v., nude mice, Capan-2 xenografts, mean ± SD (4 ≤ n ≤ 5)): 12.5 %ID/g
tissue uptake at 72 h (in vivo; kidney, Kidney uptake, 72 h p.i., ~1 MBq i.v., nude mice, Capan-2 xenografts, mean ± SD (4 ≤ n ≤ 5)): 14.7 %ID/g
tissue uptake at 192 h (in vivo; kidney, Kidney uptake, 192 h p.i., ~1 MBq i.v., nude mice, Capan-2 xenografts, mean ± SD (4 ≤ n ≤ 5)): 2.28 %ID/g
tissue uptake at 24 h (in vivo; kidney, Kidney uptake, day 1 p.i., ~1 MBq i.v., Capan-2 xenograft mice): 19.2 ± 2.5 %ID/g
tissue uptake at 72 h (in vivo; kidney, Kidney uptake, day 3 p.i., ~1 MBq i.v., Capan-2 xenograft mice): 14.7 ± 4.5 %ID/g
tissue uptake at 192 h (in vivo; kidney, Kidney uptake, day 8 p.i., ~1 MBq i.v., Capan-2 xenograft mice): 2.3 ± 0.4 %ID/g
tissue uptake at 24 h (in vivo; lung, Lung uptake, 24 h p.i., ~1 MBq i.v., nude mice, Capan-2 xenografts, mean ± SD (4 ≤ n ≤ 5)): 1.74 %ID/g
tissue uptake at 48 h (in vivo; lung, Lung uptake, 48 h p.i., ~1 MBq i.v., nude mice, Capan-2 xenografts, mean ± SD (4 ≤ n ≤ 5)): 0.53 %ID/g
tissue uptake at 72 h (in vivo; lung, Lung uptake, 72 h p.i., ~1 MBq i.v., nude mice, Capan-2 xenografts, mean ± SD (4 ≤ n ≤ 5)): 0.52 %ID/g
tissue uptake at 192 h (in vivo; lung, Lung uptake, 192 h p.i., ~1 MBq i.v., nude mice, Capan-2 xenografts, mean ± SD (4 ≤ n ≤ 5)): 0.06 %ID/g
tissue uptake at 24 h (in vivo; muscle, Muscle uptake, 24 h p.i., ~1 MBq i.v., nude mice, Capan-2 xenografts, mean ± SD (4 ≤ n ≤ 5)): 0.26 %ID/g
tissue uptake at 48 h (in vivo; muscle, Muscle uptake, 48 h p.i., ~1 MBq i.v., nude mice, Capan-2 xenografts, mean ± SD (4 ≤ n ≤ 5)): 0.11 %ID/g
tissue uptake at 72 h (in vivo; muscle, Muscle uptake, 72 h p.i., ~1 MBq i.v., nude mice, Capan-2 xenografts, mean ± SD (4 ≤ n ≤ 5)): 0.1 %ID/g
tissue uptake at 192 h (in vivo; muscle, Muscle uptake, 192 h p.i., ~1 MBq i.v., nude mice, Capan-2 xenografts, mean ± SD (4 ≤ n ≤ 5)): 0.04 %ID/g
tissue uptake at 24 h (in vivo; pancreas, Pancreas uptake, 24 h p.i., ~1 MBq i.v., nude mice, Capan-2 xenografts, mean ± SD (4 ≤ n ≤ 5)): 0.65 %ID/g
tissue uptake at 48 h (in vivo; pancreas, Pancreas uptake, 48 h p.i., ~1 MBq i.v., nude mice, Capan-2 xenografts, mean ± SD (4 ≤ n ≤ 5)): 0.17 %ID/g
tissue uptake at 72 h (in vivo; pancreas, Pancreas uptake, 72 h p.i., ~1 MBq i.v., nude mice, Capan-2 xenografts, mean ± SD (4 ≤ n ≤ 5)): 0.29 %ID/g
tissue uptake at 192 h (in vivo; pancreas, Pancreas uptake, 192 h p.i., ~1 MBq i.v., nude mice, Capan-2 xenografts, mean ± SD (4 ≤ n ≤ 5)): 0.03 %ID/g
tissue uptake at 192 h (in vivo; spleen, Spleen uptake, 192 h p.i., ~1 MBq i.v., nude mice, Capan-2 xenografts, mean ± SD (4 ≤ n ≤ 5)): 0.04 %ID/g
tissue uptake at 24 h (in vivo; stomach, Stomach uptake, 24 h p.i., ~1 MBq i.v., nude mice, Capan-2 xenografts, mean ± SD (4 ≤ n ≤ 5)): 1.92 %ID/g
tissue uptake at 48 h (in vivo; stomach, Stomach uptake, 48 h p.i., ~1 MBq i.v., nude mice, Capan-2 xenografts, mean ± SD (4 ≤ n ≤ 5)): 1.01 %ID/g
tissue uptake at 72 h (in vivo; stomach, Stomach uptake, 72 h p.i., ~1 MBq i.v., nude mice, Capan-2 xenografts, mean ± SD (4 ≤ n ≤ 5)): 0.83 %ID/g
tissue uptake at 192 h (in vivo; stomach, Stomach uptake, 192 h p.i., ~1 MBq i.v., nude mice, Capan-2 xenografts, mean ± SD (4 ≤ n ≤ 5)): 0.14 %ID/g
tissue uptake at 24 h (in vivo; tail, Tail activity, 24 h p.i., ~1 MBq i.v., nude mice, Capan-2 xenografts, mean ± SD (4 ≤ n ≤ 5)): 0.31 %ID/g
tissue uptake at 48 h (in vivo; tail, Tail activity, 48 h p.i., ~1 MBq i.v., nude mice, Capan-2 xenografts, mean ± SD (4 ≤ n ≤ 5)): 0.2 %ID/g
tissue uptake at 24 h (in vivo; tumor, Tumor uptake, 24 h p.i., ~1 MBq (22 pmol) i.v., nude mice, Capan-2 xenografts, mean ± SD (4 ≤ n ≤ 5)): 3.13 %ID/g
tissue uptake at 24 h (in vivo; tumor, Tumor uptake, day 1 p.i., ~1 MBq i.v., Capan-2 xenografts, mean ± S.E.M.): 3.1 ± 0.6 %ID/g
tissue uptake at 48 h (in vivo; tumor, Tumor uptake, day 2 p.i., ~1 MBq i.v., Capan-2 xenografts, mean ± S.E.M.): 2.5 ± 0.4 %ID/g
tissue uptake at 72 h (in vivo; tumor, Tumor uptake, day 3 p.i., ~1 MBq i.v., Capan-2 xenografts, mean ± S.E.M.): 3.5 ± 0.9 %ID/g
tissue uptake at 192 h (in vivo; tumor, Tumor uptake, day 8 p.i., ~1 MBq i.v., Capan-2 xenografts, mean ± S.E.M.): 1.2 ± 0.2 %ID/g
Tumor uptake (Capan-2 xenografts; 24 h p.i., ~1 MBq (22 pmol) i.v., nude mice, Capan-2 xenografts, mean ± SD (4 ≤ n ≤ 5)): 3.13 ± 0.63 %IA/g
Kidney uptake (Capan-2 xenografts; 24 h p.i., nude mice, Capan-2 xenografts, mean ± SD (4 ≤ n ≤ 5)): 19.2 ± 2.5 %IA/g
Blood activity (Capan-2 xenografts; 48 h p.i., nude mice, Capan-2 xenografts, mean ± SD (4 ≤ n ≤ 5)): 0.00 %IA/g
Blood activity (Capan-2 xenografts; [1]): 0.00 %IA/g
Kidney uptake (Capan-2 xenografts; [1]): 2.3 ± 0.40 %IA/g
Tumor uptake compared with ^64Cu conjugate (Capan-2 xenografts; comparison with earlier study, cited there as [19]): tumor uptake was not found to be higher
Kidney wash-out versus tumor (ex vivo) (Capan-2 xenografts; days 1, 2, 3 and 8 p.i., listed as 177Lu tracer): in the tumor the activity was cleared at a much lower rate than in the kidney
Activity in organs like stomach, colon and lung (Capan-2 xenografts; later time points): low or moderate activity
